Experimental data reported in PMC3295402 (Journal of Experimental Botany, 2012).
Numbering of substitutions follows the chain as printed. Each block holds one molecule with its values, some of them ahead of it.

How the values were obtained:
[1] = target: cryptogein (wt cryptogein, Cry) (Phytophthora cryptogea, UniProt P15570); assay: biochemical
[2] = target: cryptogein (wt cryptogein, Cry) (Phytophthora cryptogea, UniProt P15570, L61F); assay: biochemical
[3] = target: high-affinity binding site on the tobacco plasma membrane (tobacco (endogenous in Xanthi cell suspension)); assay: filter binding of FITC-labelled ligand to plasma membrane preparations

B2: cryptogein Val84Phe mutant (ligand)
chain: GTACTATQQTAAYKTLVSILSDASFNQCSTDSGYSMLTAKALPTTAQYKLMCASTACNTMIKKIFTLNPPNCDLTVPTSGLVLNVYSYANGFSNKCSSL
modifications: fluorescein isothiocyanate (FITC) label, site not stated
- amount of bound molecules at 10 nM (pmol mg^−1 plasma membrane proteins) [3]: 55.3

B3: cryptogein Leu41Phe/Val84Phe double mutant (ligand)
chain: B2 chain with L42F, F65V, V85F
modifications: fluorescein isothiocyanate (FITC) label, site not stated
- amount of bound molecules at 30 nM (pmol mg^−1 plasma membrane proteins) [3]: 16.9

Next, values leading:

- Kd [1]: 560 ± 40 nM
- Kd [2]: 850 ± 50 nM
Molecule: CC(C)[C@@H](C)/C=C/[C@@H](C)[C@H]1CC[C@H]2C3=CC=C4C[C@@H](O)CC[C@]4(C)C3=CC[C@]12C [DHE]

- amount of bound molecules at 10 nM (pmol mg^−1 plasma membrane proteins) [3]: 57.4
B1: wild type (wt) cryptogein (ligand)
chain: B2 chain with F65V
modifications: fluorescein isothiocyanate (FITC) label, site not stated

- amount of bound molecules at 30 nM (pmol mg^−1 plasma membrane proteins) [3]: 14.4
B4: cryptogein Leu41Phe mutant (ligand)
chain: B2 chain with L42F, F65V
modifications: fluorescein isothiocyanate (FITC) label, site not stated
